Results reported in the RNAGym collection of RNA variant scans (doi:10.1073/pnas.2313332121).

B1: TPR t1 (parent)
chain: GACCAAUCUGCCCUCAGAGCUCGAGAACAUCUUCGGAUGCAGAGGAGGCAGGCUUCGGUGGCGCGAUAGCGCCAACGUCCUCAACCUCCAAUGCAUCCCACCACAUGAUGAUGCCUGAAGAGCCUUGGUUUUUUG

Variants of: B1
Experiment: polymerase ribozyme fitness, log enrichment relative to wild type (log ratio); higher = more active; in vitro selection for triplet polymerase activity
How it was run: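 Mutant libraries of each subunit of a heterodimeric triplet polymerase ribozyme were built by PCR and transcribed. Each library went through one round of in vitro selection in triplicate: annealing with biotinylated primer, partner subunit and triplets, frozen incubation at −7 °C, gel excision of extended constructs, streptavidin-bead capture and RT-PCR. Input and output libraries were Illumina-sequenced; only genotypes with ≥10 input reads and ≥1 read per output were kept. Fitness is log2(genotype enrichment/wild-type enrichment), using inverse-variance-weighted replicate averages.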

Variant	polymerase ribozyme fitness (log ratio)
GACCAAUCUGCCCUCAGAGCUCGAGAACAUCUUCGGAUGCUGAGGAGGCAGGCUUCGGUGGCGCGAUAGCGCCAACGUCAUCAACCUCCAAUGCAUCCCACCACAUGAUGAUGCCUGAAGAGCCUUGGUUUUUUG [A41U C80A]	-5.17
GAGCAAUCUGAACUCAGAGCUCGAGAACAUCUUCGGAUGCAGAGGAGGCAGGCUUCGGUGGCGCGAUAGCGCCAACGUCCUCAACCUCCAAUGCAUCCCACCACAUGAUGAUGCCUGAAGAGCCUUGGUUUUUUG [C3G C11A C12A]	-3.85
GACCAAUCUGCCCUCAGAGCUCGGGAACAUCUUCGGAUGCAGAGGAGGCAGGCUUCGGUGGCGCGAUAGCACCAACGUCCUCAACCUCCAAUGCAUCCCACCACAUGAUGAUGCCUGAAGAGCCUUUGUUUUUUG [A24G G71A G127U]	-5.42
GACCAAUCUGCCCUCAGAGCUCAAGAACAUCUUCGGAUGCAGAGGAGGCAGGCUUCGGUGGCGCGAUAACGCCAACGCCCUCAACCUCCAAUGCAUCCCACCACAUGAUGAUGCCUCAAGAGCCUUGGUUUUUUG [G23A G69A U78C G117C]	-6.47
GACCAAUCUGCCCUCAGAGCUCGAGAACAUCUUCGGAUGCAGAGGAGGCAGGCUUAGGUGGCGCGAUAGCGUCAACGUCCUCAACCUCCAAUGCAUCCCACCAAAUGAUGAUGCCUGAAGAGCUUUGGUUUUUUG [C56A C72U C104A C124U]	-0.00796
GACCAAUCUGCCCUCAGAGCUCGAGAACAUCUUCGGAUGCAGAGGAGGCAGGCUUCGGUGGCGCGAUAUCGCCAUCGUCCUCAACCUCCAAUGCAUCCCAUCACAUGAUGAUCCCUGAAGAGCCUUGGAUUUUUG [G69U A75U C101U G113C U129A]	-2.36
GACCAAUCUGCCCUCAGAGCUCGAGAACAUCUUCGGAUGCAGAGGAGGCAGGCUUCGGUGGCGCGAUAGCGCCAACGUCCUCAACCUCCAAUGCAUCCCACCACAUGAUGAUGCCUGAAGAGCUUUGGUUUUGUG [C124U U133G]	0.97
GACCAAUCUGCCCUCAGAGCUCGAGAACAUCUUCGGAUGCAGAGGAGGCAGGCUUCGGUAGCGCGAUAGCGCCAACGUCCUAAACCUCCAAUGCAUCCCACCACAUGAUGAUGCCUGAAGAGCCUUGGGUUUUUG [G60A C82A U129G]	-1.13
GACCAAUCUGCCCUCAGAGCUCGAGAACAUCUUCGGAUGCAGAGGAGGCAGGCUUCGGUGGCGCGAUAGCGCCAACGUCCUCAAGCUCCAAUGCAGCCCACCACUUGAUGAUGCCUGAAGAGCCUUGGUUUUUUG [C85G U96G A105U]	-4.68
GACCAAUCUGCCCUCAGAGCUCGAGAACAUCUUCGGAUGCAGAGGAGGCAGGCUUCGGUGUCGCGAUAGCGCCAACGUCCUCAACCUCCAAUGCAUCUCACCACAUGAUGAUGCCUGAAGAGCCUUGGCUUUUUG [G61U C98U U129C]	-0.95
GACCAAUCUGCCCUCAGAGCUCGAGAACAUCUUCGGAUGCAGAGGAGGCAGGCUUCGGUGGCGCGAUAGCGCCAACGUCCUCAACCUCCUACGCACCCCACCACAUGAUGAUGCCUGAAGAGCCUUGGUUUUUUG [A90U U92C U96C]	-2.06
GACCAAUCUGCCCUCAGAGCUCGAGAACAUCUUCGGAUGCAGAGGAGGCCGGCUUCGGUGGCGCGAUAGCGCCAACGUCCUCAACCUACAAUGCAUCCCACCACAUGAUGAUGCCUGAAGAGCCUUGGUUUUUUG [A50C C88A]	-1.03
GACCAAUCUGCCCUCAGAGCUCGAGAACAUCUUCGGAUGCAGAGGAGGCUGGCUUCGAUGGCUCGAUAGCGCCAACGUCCUCAACCUCCAAUGCAUCCCACCACAUGAUGAUCCCUGAAGAGCCUUGGGUUUUUG [A50U G58A G63U G113C U129G]	-7.01
GACCGAUCUGCCCUCAGAGCUCGAGAACAUCUUCGGAUGCAGAGGAGGCAGGAUUCGGAGGCGCGAUAGCGCCAACUUCCUCAACCUCCAAUGUAUCCCACCACAUGAUGAUGCCUGAAGAGCCUUGGUUUUUUG [A5G C53A U59A G77U C94U]	-0.908
GACCAAUCUGCCCUCAGAGCUCGAGAACAUCUUCGGAUGCAGAGGAGGCAGGCUUGGGUGUCGCGAUAGCGCUAACGUCCUCAACCUCCAAUGCAUCCCACCACAUGAUGAUGCCUGAAGAGCCUUGGUUUUUUG [C56G G61U C73U]	-3.17
GACCAAUCGGCCCUCAGAGCUCGAGAACGUCUUCGGAUUCAGAGGAGGCAGGCAUCGGUGGCGCGAUAGCGCCAACGUCCUCUACCUCCAAUGCAUCCCACCACAUGAUGAUGCCUGAAGAGCCUUGGUUUUUUG [U9G A29G G39U U54A A83U]	-3.38
GACCAAUCUGCCCUCAGAGCUCGAGAACAUCUUCGGAUGCAGAGGAGGCAGGCUUCGGUGGCACGAUAGCGCCAACGUCCUCAACAUCCAAUGCAUCCCACCACAUGAUGAUGCCUGAAGAGCCUUGGUUUUUUG [G63A C86A]	-2.33
GACCAAUCUGCCCUCAGAGCUCGAGAACAUCUUCGGAUACAGAGGAGGCAGGCUUCGGUGGCGCGAUAACGCCAACGUCCUCAACCUCCAAUGCAUCCCACCACAUGAUGAUGCCUGAAGAGCCUUGGUUUUUUG [G39A G69A]	-3.04
GACCAAUCUGCGCUCAGAGCUCGAGAACAUCUUCGGAUGCAGAGGAGGCAGGCUUCGGUGGCGCGAUAGCGCCAACGUCCUCAACCUCCAAUGCAUCCCACCACAUGAUGAUGCCUGAAGCGCCUUGGUUUUUUG [C12G A121C]	1.5
GACCACUCUGCCCUCAGAGCUCGAGAACAUCUUCGGAUGCAGAGGAGGCAGGCUUCGGUGGCGCGAUAGCGCCAACGUCCUCAACCUCCAAUGCAUCCCACCACAUGAUGAUGCCUGAAUAGCCUUGGUUUUUUG [A6C G120U]	0.259
GACCAAUCUGCCCUCAGAGCUCGAGAACAUCUUCGGAUGCAGAGGAGGCAGGCUUCGGUGGCGCGAUACCGCCAACGUCCUCAACCUCCUAUGCAUCCCACCACAUGAUGAUGCCUGAAGAGCCUUGGUUUUUUG [G69C A90U]	-2.68
